These results are taken from the supplement of paper PMC10724198.

± gives the standard deviation of the averaged measurements.
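Also: PSI is a weighted mean of sequencing reads over stability bins, variants kept only with over 10 reads, mCherry proximal and sfGFP distal, peptide attached via GGGS linker.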

In this data set the test system is Saccharomyces cerevisiae. Kind of data set: protein stability index of tFT-peptide fusion (C-terminal peptide) (PSI (0-1 scale)); higher = more stable (slower turnover). To be noted: genetic background: wild type; temperature: 30 C. As to the method:
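Multiplexed protein stability (MPS) profiling in S. cerevisiae. Random 12-aa peptides (tFT-X12 library) are fused to the C-terminus of a sfGFP-mCherry tandem fluorescent timer, after mCherry and a GGGS linker. Cells are FACS-sorted into 8 mCherry/sfGFP bins and deep-sequenced. The protein stability index (PSI) is the read-weighted bin average, scaled from 0 (unstable) to 1 (stable). Only peptides with >10 reads are reported; cells were grown at 30 °C in SC-His with glucose.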
In turn, EHHLSRLKSLLR yielded a protein stability index of 0.709 ± 0.058.

Take EHIRPNMSSYAV: the protein stability index was found to be 0.728 ± 0.072.

Sequence EHKSPYGTLRFP yielded a protein stability index of 0.777 ± 0.11.

As to EIEFRLKLGTGV, the protein stability index was 0.655 ± 0.04.

In the case of EIKKNQKRKFDG, the protein stability index was found to be 0.66 ± 0.041.

EIRGGYMGEWRE displayed a protein stability index of 0.691 ± 0.082.

EIRIISGIDDRR: the protein stability index worked out at 0.628 ± 0.077.

EITRNKRRCARR showed a protein stability index of 0.674 ± 0.14.

Sequence EKGRSGVNILRV registered a protein stability index of 0.653 ± 0.011.

EKIERDKRKKVK displayed a protein stability index of 0.621 ± 0.0076.

EKIKNKDYIEKT had a protein stability index of 0.887 ± 0.094.

Take EKKDKKKRKEKG: the protein stability index came to 0.674 ± 0.028.

Consider EKKKKTKYKKKK, for which the protein stability index is 0.735 ± 0.052.

On to EKKKQKHKKKKN, for which the protein stability index is 0.706 ± 0.031.

EKKNKKRNKKNK showed a protein stability index of 0.697 ± 0.058.

EKKRAGEDGRGK yielded a protein stability index of 0.673 ± 0.0081.

EKKRERRRERKE: the protein stability index is 0.65 ± 0.091.

Regarding EKLADTTKRRRV, the protein stability index worked out at 0.724 ± 0.026.

EKLKNTYLNRTE: the protein stability index was found to be 0.641 ± 0.023.

EKNDMKKKKNRQ came in with a protein stability index of 0.713 ± 0.035.

In turn, EKSNQKSRRNSR gave a protein stability index of 0.638 ± 0.15.

Turning to ELDFFIGYGVFC, the protein stability index is 0.626 ± 0.0082.

In turn, ELDRIRPHEQSH returned a protein stability index of 0.723 ± 0.03.

The sequence ELHPLPLPPPAV gave a protein stability index of 0.743 ± 0.013.

Turning to ELLASVSVSSRF, the protein stability index came to 0.6276 ± 0.0044.

As for ELLPFPPPSAPT, the protein stability index came out at 0.719 ± 0.022.

As to ELLRTGRVLDRE, the protein stability index was found to be 0.71 ± 0.0076.

In the case of ELRPSTTPLHPS, the protein stability index was 0.68268 ± 0.00044.

Take ELVGLAHVLELA: the protein stability index came out at 0.655 ± 0.084.

The sequence ELWGGGFLLMLG gave a protein stability index of 0.599 ± 0.021.

EMTRELLMRVSK showed a protein stability index of 0.704 ± 0.015.

Regarding EMYLKTPVDRKL, the protein stability index came to 0.678 ± 0.038.

With ENMVLQKRGIKV, the protein stability index turned out to be 0.5024 ± 0.0049.

In turn, ENQKKSKTNRKK returned a protein stability index of 0.658 ± 0.036.

In turn, EPAAGFAICRHH gave a protein stability index of 0.67 ± 0.02.

In turn, EPIKEKKKMGSR yielded a protein stability index of 0.63 ± 0.056.

For EPRVGCVGFGIT, the protein stability index is 0.638 ± 0.013.

EPSAPYYCVTKG came in with a protein stability index of 0.7279 ± 0.002.

Regarding EQENATDRRGRE, the protein stability index was determined as 0.644 ± 0.026.

EQFLRCEALGAW gave a protein stability index of 0.661 ± 0.02.

EQNRINLNRSGL came in with a protein stability index of 0.762 ± 0.23.

The sequence EQRSKSHVLPPR came in with a protein stability index of 0.737 ± 0.009.

Sequence ERAKMYPKKKIR showed a protein stability index of 0.64 ± 0.067.

EREALKSCIIRA displayed a protein stability index of 0.641 ± 0.014.

EREGREGKGRER returned a protein stability index of 0.777 ± 0.079.

The sequence ERKKDGRKVRKK had a protein stability index of 0.658 ± 0.012.

For ERKNTTSEFTNL, the protein stability index stood at 0.684 ± 0.0079.

The sequence ERRERGGERNTP registered a protein stability index of 0.658 ± 0.01.

With ERSHGEKGVFYL, the protein stability index was 0.73 ± 0.031.

Sequence ESDLRFPGVPCI yielded a protein stability index of 0.696 ± 0.011.

Take ESHSIIRRRSWW: the protein stability index is 0.7797 ± 0.0037.

For ESIEVGTGDWVG, the protein stability index was 0.653 ± 0.013.

As for ESKKYQQDNITR, the protein stability index was found to be 0.608 ± 0.039.

With ESKRKLHSSRYS, the protein stability index was determined as 0.6875 ± 0.0032.

Sequence ESPPVCFLFSSC came in with a protein stability index of 0.711 ± 0.021.

ESRGKKPDTYTQ: the protein stability index was 0.707 ± 0.074.

For the sequence ESRNEPDQRLCQ, the protein stability index was 0.686 ± 0.013.

Take ESRPRVGLERER: the protein stability index is 0.676 ± 0.053.

In turn, ESSVLGFWIMSL came in with a protein stability index of 0.629 ± 0.041.

The sequence ETARENENTIGE had a protein stability index of 0.6575 ± 0.0065.

For ETCTRHHPRHNS, the protein stability index amounted to 0.687 ± 0.043.

With ETEASKGSRNEE, the protein stability index amounted to 0.627 ± 0.065.

Consider ETGGQTELKVVH, for which the protein stability index was found to be 0.683 ± 0.084.

Sequence ETHHITHHQWKV yielded a protein stability index of 0.683 ± 0.05.
